Test results as given in patent publication US20240294650A1 (Alector, published 2024).

T1: human MerTK (human, UniProt Q12866 21-999)
T1 sequence: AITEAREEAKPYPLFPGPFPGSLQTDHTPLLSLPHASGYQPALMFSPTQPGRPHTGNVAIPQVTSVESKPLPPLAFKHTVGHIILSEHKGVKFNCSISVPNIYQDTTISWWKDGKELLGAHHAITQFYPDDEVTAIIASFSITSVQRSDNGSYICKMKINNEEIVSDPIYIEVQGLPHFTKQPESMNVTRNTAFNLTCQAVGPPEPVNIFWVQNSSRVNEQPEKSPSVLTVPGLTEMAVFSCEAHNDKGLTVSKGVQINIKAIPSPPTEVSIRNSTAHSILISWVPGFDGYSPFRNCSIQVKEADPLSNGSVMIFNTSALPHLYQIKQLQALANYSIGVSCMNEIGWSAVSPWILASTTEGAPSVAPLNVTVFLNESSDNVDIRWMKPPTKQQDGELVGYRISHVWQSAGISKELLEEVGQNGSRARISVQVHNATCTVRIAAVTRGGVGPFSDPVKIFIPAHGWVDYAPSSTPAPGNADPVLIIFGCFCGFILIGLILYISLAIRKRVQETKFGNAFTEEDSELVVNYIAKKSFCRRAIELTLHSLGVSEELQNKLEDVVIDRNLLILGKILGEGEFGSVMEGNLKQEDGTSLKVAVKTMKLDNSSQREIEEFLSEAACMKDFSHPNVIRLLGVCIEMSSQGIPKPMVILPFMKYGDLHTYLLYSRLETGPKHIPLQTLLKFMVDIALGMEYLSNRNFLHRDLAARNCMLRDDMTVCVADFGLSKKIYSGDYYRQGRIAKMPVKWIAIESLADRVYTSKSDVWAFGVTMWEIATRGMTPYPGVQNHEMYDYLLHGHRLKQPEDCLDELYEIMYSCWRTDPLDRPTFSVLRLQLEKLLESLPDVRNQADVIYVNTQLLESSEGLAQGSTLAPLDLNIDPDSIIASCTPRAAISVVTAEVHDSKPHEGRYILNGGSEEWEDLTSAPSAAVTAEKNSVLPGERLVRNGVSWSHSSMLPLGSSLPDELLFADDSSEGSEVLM

T2: Recombinant human MerTK-human Fc Chimera protein (human, UniProt Q12866 26-499, limits assumed)
T2 construct: bought construct; also called MerTK-Fc (R&D systems, Cat #391-MR-100)
T2 sequence: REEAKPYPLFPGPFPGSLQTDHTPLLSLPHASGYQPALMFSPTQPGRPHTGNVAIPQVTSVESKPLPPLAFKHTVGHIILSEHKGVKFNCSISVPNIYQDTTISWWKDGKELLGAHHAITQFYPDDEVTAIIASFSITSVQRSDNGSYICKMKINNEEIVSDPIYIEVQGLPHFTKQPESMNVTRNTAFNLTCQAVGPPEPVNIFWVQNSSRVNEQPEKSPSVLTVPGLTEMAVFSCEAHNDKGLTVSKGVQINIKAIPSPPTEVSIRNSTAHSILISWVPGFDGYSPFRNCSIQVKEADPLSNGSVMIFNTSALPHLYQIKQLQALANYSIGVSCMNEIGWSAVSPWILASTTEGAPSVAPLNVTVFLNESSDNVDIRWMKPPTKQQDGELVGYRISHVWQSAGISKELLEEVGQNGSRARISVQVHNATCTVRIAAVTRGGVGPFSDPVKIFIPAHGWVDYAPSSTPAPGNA

T3: Full Axl (ECD domain of human Axl) (human, UniProt P30530 26-451)
T3 construct: also called human Axl ECD
T3 sequence: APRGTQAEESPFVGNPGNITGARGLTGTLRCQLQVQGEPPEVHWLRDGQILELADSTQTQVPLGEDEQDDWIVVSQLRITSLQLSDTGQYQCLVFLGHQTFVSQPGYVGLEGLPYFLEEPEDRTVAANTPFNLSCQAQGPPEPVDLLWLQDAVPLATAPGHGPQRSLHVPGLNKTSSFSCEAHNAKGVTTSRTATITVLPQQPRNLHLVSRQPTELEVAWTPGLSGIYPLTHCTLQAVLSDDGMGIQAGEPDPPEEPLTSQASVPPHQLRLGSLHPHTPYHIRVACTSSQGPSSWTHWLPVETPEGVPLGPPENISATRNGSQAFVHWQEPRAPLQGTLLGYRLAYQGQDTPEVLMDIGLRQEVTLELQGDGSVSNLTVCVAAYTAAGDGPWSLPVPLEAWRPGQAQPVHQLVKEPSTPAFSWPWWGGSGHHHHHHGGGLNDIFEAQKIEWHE


How the values were obtained:
[1] = target: T1, human MerTK; assay: cell-based or functional assay
[2] = target: T2, Recombinant human MerTK-human Fc …; assay: blocking ELISA, Gas6-His on MerTK-Fc, Ab 66.6 nM, isotype=100%
Method: Briefly, rabbit anti-human IgG antibody (Jackson ImmunoResearch, Cat #309-005-008) was coated at 2 μg/ml onto high-protein binding plates at 4° C. overnight. After washing with 0.05% Tween20 in PBS three times, 5% BSA in PBS was added for 1 hour. Recombinant human MerTK-human Fe Chimera protein (R&D systems, Cat #391-MR-100) was added at 2 μg/ml for 1 hour and plates were washed before the addition of 40 μl of anti-MerTK hybridoma supernatants and 40 μl of His tag-conjugated recombinant Gas6 (R&D systems, Cat #885-GSB-050) at 3 μg/ml or His tag-conjugated recombinant ProS (R&D systems, Cat #9489-PS-100) at 20 μg/ml. After a further incubation for 1 hour, plates were washed and incubated for 1 hour with HRP-conjugated anti-6×His tagged antibody (Abcam, Cambridge, MA, Cat #ab1187). Plates were then washed and an HRP substrate, TMB, was added to develop the plates. The reaction was stopped by adding 50 μl 2N H₂SO₄ and the OD was measured using a spectrophotometer (BioTek).
Anti-MerTK antibodies were titrated to a final concentration from 66.6 nM to 4 pM and tested against anti-human MerTK antibody M6 (disclosed in WO2016/106221) or isotype control antibody.

[3] = target: T3, Full Axl (ECD domain of human Axl); assay: SPR (data not shown)
Method: Binding of anti-MerTK antibodies of the present disclosure to these domain-swapped chimera or deletion mutants was tested by Surface Plasmon Resonance (SPR) using Carterra LSA. Purified anti-MerTK antibodies were immobilized in duplicate on a HC30M chip (Carterra) by amine coupling, following the manufacturer's instructions (described previously).
Supernatants containing the constructs were diluted 1:1 with running buffer containing 0.5 mg/mL BSA (HBS-TE, Carterra; BSA, Sigma) and injected over the immobilized antibodies. The surface was regenerated with 10 mM Glycine pH2.0 after each construct injection. Sensorgrams were analyzed using Carterra Epitope software to identify patterns of construct binding. Loss of binding to MerTK constructs with domains deleted or swapped in from Axl and/or gain of binding to Axl constructs with MerTK domains swapped in were evaluated. Data from these studies were used to construct a domain binding map for anti-MerTK antibodies and their binding to various domains of human MerTK.

Binder | EC50 (nM), pAKT in SK-MEL-5 cells [1] | Fold increase in PAKT over IgG control [1] | Percent Gas6 ligand binding [2] | binding result [3]
MTK-228 (antibody, human IgG1, V domains shown) VH: QDQLQQSGPELVKPGASVKISCKASGYSFTSYYIHWVKQRPGQGLEWVGWIFPGNGNTKYNERFKGKATLTADTSSSTAYMQLSSLTSEDSAVYYCARLGLIYALDYWGQGTSVTVSS VL: DAVMTQTPLSLPVSLGDQASISCRSSQSLENSNGNTYLHWYLQKPGQSPQLLIYRVSNRFSGVLDRFSGSGSGTDFTLKISRVEAEDLGVYFCLQVTHVPFTFGSGTKLEIK | 0.53 nM | 4.2 fold | 110% | no binding
MTK-226 (antibody, human IgG1, V domains shown) VH: QVQLQQSGPELVKPGASVKISCKASGYSFTSYYIHWVKQRPGQGLEWIGWIFPGNGNTKYNENFRGKATLTADTSSSTAYMQLSSLTSEDSAVYYCARLGLIYALDYWGQGTSVTVSS VL: DAVMTQTPLSLPVSLGDQASISCRSSQSLESSNGNTYLHWYLQKPGQSPQLLIYRVSNRFSGVLDRFSGSGSGTDFTLQISRVEAEDLGVYFCLQVTHVPFTFGSGTKLEIK | 0.53 nM | 4.2 fold | 109% | no binding
MTK-218 (antibody, human IgG1, V domains shown) VH: QVQLQQSGPELVKPGTSVKISCKASGYSFTSYYIHWVKQRPGQGLDWIGWIFPGNRNTQYNEKFKGKATLTADTSSSTAYMQLSSLTSEDSAVYYCARLGLIYALDYWGQGTSVTVSS VL: DAVMTQTPLSLPVSLGDQASISCRSSQSLENSNGHTYLHWYLQKPGQSPQLLIYRVSNRFSGVQDRFSGSGSGTDFTLKISRVEAEDLGVYFCLQVTHVPFTFGSGTKLEIK |  | 4.5 fold | 112% | no binding
MTK-213 (antibody, human IgG1, V domains shown) VH: QVQLQQPGAELVKPGASVKMSCKASGYTFTSYWITWVKQRPGQGHEWIGEIYPGIGSTNYNEKFKSKATLTVDTSSRTAYMQLSSLTSEDSAVYFCARGAYTKYYFDYWGQGTTLTVSS VL: DIVMTQSHKFMSTSVGDRVSITCKASQDVGDAVAWYQQKPGQTPKLLIYWASTRHTGVPDRFTGSGSGTDFTLTISNVQSEDLADYFCQQYSSYLMYTFGGGTKLEIK |  | 3.7 fold | 102% | no binding
MTK-220 (antibody, V domains shown) VH: EVQLVESGGGLVKPGGSLKLSCAASGFTFSDYGMHWVRQAPEKGLEWVAFISGGSGTIYYEDTVKGRFTISRDNAKNTLFLQMTSLRSEDTAMYYCTRGGNYFDYWGQGTTLTVSS VL: NIMLTQSPSSLAVSAGEKVTMTCKSSQSVLYSSNQKNYLAWYQQKPGQSPKLLIYWASTRESGVPDRFTGSGSGTDFTLTISNVQAEDLAVYYCHQYFSSWTFGGGTKLEIK |  | 3.6 fold | 97% | no binding
MTK-229 (antibody, human IgG1, V domains shown) VH: QVQLQQSGPELVKPGASVKISCKASGYEFSRSWMNWVKQRPGKGLEWIGRIYPGDGDTNYKGKLKGQATLTADKSSSTAYMQLSSLTFEDSAVYFCARGGGYYYDSRYEGFVYWGQGTVVTVSA VL: QIVLTQSPAIMSASPGEEVTMTCSASSSVSYMHWYQQKSGTSPKRWIYDTSKLASGVSGRFSGSGSGTSYSLTISSMEAEDAATYYCQQWSSNPPITFGAGTKLELK | 1.89 nM | 4.1 fold | 98.9% | no binding
MTK-219 (antibody, human IgG1, V domains shown) VH: QVQLQQSGADLMKPGASVKLSCKATGNTFTGYWIEWVKQRPGHGLEWIGEILTGSGSTNYNERFKGKATFTADTSSNTAYMQLSSLTTEDSAIYYCAGSYFTNSWFPYWGQGSLVTVSA VL: DIVLTQSPASLAVSLGQRATISCRASESVDSYGNSFMHWYQQKPGQPPKLLIYRAYTLESGIPARFSGSGSRTDFTLTINPVEADDVATYYCQQSNEDPRTFGGGTKLEIK |  | 3.5 fold | 106% | no binding
MTK-222 (antibody, human IgG1, V domains shown) VH: QVQLQQSGADLMKPGASVKLSCKATGYTFTGYWIEWVKQRPGHGLEWIGEILTGSGSSNYNEKFKGKATFTADSSSNTAFMQLSSLTTEDSAIYYCAGSYYSNSWFPYWGQGSLVTVSA VL: DIVLTQSPVSLAVSLGQRATISCRASESVDSYGSSFMHWYQQKPGQPPKLLIYRASSLESGIPARFSGSGSRTDFTLTINPVETDDVATYYCQQSNEDPRTFGGGTKLEIK |  | 4.6 fold | 105% | no binding
MTK-223 (antibody, human IgG1, V domains shown) VH: DVQLQESGPGLVKPSQSLSLTCSVTGYSITSGYYWNWIRQFPGNKLEWMGYISYDGTNNYNPSLKNRISITRDTSENQFFLKLNSVTTEDTATYFCVRGAGYWGQGTTLTVSS VL: not shown |  | 4.1 fold | 107% | no binding
MTK-227 (antibody, human IgG1, V domains shown) VH: EVKLVESGGGLVQPGGSLSLSCAASGFTFTDNYMTWVRQPPGKALEWLGFSRNKANGYTTEYSASVKGRFTISRDSSQSILYLQMNALRAEDSGTYYCARFPPHYYAGGYFDVWGTGTTVTVSS VL: DIQMTQSPASLSASVGETVTITCRASENIYSYLAWYQQKQGKSPQLLVYNAKTLAEGVPSRFSGSGSGTQFSLKINSLQPADFGSYYCQHYYRTPPTFGGGTKLEIK | 1.89 nM | 4.7 fold | 99.9% | no binding
